Results taken from US20210087281A1 (AGOMAB THERAPEUTICS, published 2021).
Numbering of substitutions follows the chain as printed. Blank lines part the entries; values can stand above or below the binder they belong to.

What was measured:
[1] = target: T1, native mouse MET on living cells (mouse, UniProt P16056 25-1379); assay: cell-based or functional assay
[2] = target: T2, native human MET on living cells (human, UniProt P08581 25-1390); assay: cell-based or functional assay
human MET ECD [3] = target: T3, human MET ECD (human, UniProt P08581 25-932); assay: ELISA, MET ECD in solid phase, mAb 0-50 nM
T3 construct: range 1-932; recombinant ECD made by the applicants; the stated range begins at residue 1, so it includes the signal peptide of the entry; also called hMET; hMET ECD
T3 sequence (P08581 25-932 limits assumed, form in doubt): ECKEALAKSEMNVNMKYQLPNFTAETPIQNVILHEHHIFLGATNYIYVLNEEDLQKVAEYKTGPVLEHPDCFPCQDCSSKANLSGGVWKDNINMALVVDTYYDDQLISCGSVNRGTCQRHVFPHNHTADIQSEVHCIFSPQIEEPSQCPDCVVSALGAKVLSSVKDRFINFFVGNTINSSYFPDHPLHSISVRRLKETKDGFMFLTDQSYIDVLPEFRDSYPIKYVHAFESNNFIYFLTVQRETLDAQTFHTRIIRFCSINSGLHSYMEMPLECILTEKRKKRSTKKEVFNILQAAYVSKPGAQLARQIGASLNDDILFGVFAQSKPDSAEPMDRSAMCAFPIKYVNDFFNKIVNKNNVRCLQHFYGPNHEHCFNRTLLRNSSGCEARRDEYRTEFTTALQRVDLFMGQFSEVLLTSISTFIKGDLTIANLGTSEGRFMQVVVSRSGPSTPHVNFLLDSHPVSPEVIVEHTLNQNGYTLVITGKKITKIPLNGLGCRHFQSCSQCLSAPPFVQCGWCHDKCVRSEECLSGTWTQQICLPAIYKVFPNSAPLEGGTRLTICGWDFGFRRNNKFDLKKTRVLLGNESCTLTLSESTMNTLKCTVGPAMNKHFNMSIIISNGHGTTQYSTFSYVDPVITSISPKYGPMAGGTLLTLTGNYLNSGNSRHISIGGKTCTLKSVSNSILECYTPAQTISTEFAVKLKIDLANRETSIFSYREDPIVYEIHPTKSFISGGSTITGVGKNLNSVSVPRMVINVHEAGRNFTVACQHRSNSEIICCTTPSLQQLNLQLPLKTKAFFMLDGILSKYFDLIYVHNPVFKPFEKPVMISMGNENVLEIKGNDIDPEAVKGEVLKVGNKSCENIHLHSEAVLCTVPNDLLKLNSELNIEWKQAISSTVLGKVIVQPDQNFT
Experimental: Using human MET as a template, we mutagenized each of these residues in different permutations, generating a series of MET mutants that are fully human except for specific residues, which are llama. Next, we tested the affinity of selected SEMA-binding mAbs (71D6, 71C3, 71D4, 71A3, 71G2) and PSI-binding mAbs (76H10 and 71G3) for these MET mutants by ELISA. To this end, the various MET proteins were immobilized in solid phase (100 ng/well in a 96-well plate) and then exposed to increasing concentrations of antibodies (0-50 nM) solution. […] Wild-type human MET was used as positive control.
TABLE 18 The epitopes of MET responsible for agonistic antibody binding represent residues conserved among H. sapiens, M. musculus, R. norvegicus, M. fascicularis but not among the same species and L. glama. The relevance of residues conserved among human, mouse, rat, cynomolgus monkey but not llama MET for binding to agonistic mAbs was tested by ELISA. Wild-type (WT) or mutant (MT) human MET ECD was immobilized in solid phase and exposed to increasing concentrations of mAbs in solution. […] All binding values were normalized to the WT protein and are expressed as % binding (EMAX) compared to WT MET.

human MET ECD [4] = target: T3, human MET ECD; assay: ELISA, MET ECD in solid phase, mAb 0-20 nM
Experimental: (§1) Production (by transient transfection of mammalian cells) and purification (by protein A affinity chromatography) of the resulting chimeric llama-human IgG1 molecules was outsourced to U-protein Express. Binding of chimeric mAbs to MET was determined by ELISA using hMET or mMET ECD in solid phase and increasing concentrations of antibodies (0-20 nM) in solution. […] Binding capacity (EMAX) varied from antibody to antibody, possibly due to partial epitope exposure in the immobilized antigen, but was similar in the human and mouse setting.

mouse MET ECD = target: T4, mouse MET ECD (mouse, UniProt P16056 25-931); assay: ELISA, MET ECD in solid phase, mAb 0-20 nM
T4 construct: range 1-931; recombinant ECD made by the applicants; the stated range begins at residue 1; also called mMET; mMET ECD
Experimental: as §1

[5] = target: T1, native mouse MET on living cells; assay: cell-based or functional assay; remark: listed apart in the source
[6] = target: T2, native human MET on living cells; assay: cell-based or functional assay; remark: listed apart in the source
[7] = target: T1, native mouse MET on living cells; assay: cell-based or functional assay; remark: listed apart in the source
[8] = target: T2, native human MET on living cells; assay: cell-based or functional assay; remark: listed apart in the source
[9] = target: human MET ECD mutant D (mutations 1, 2) (human) (UniProt P08581); assay: ELISA, MET ECD in solid phase, mAb 0-50 nM
[10] = target: human MET ECD mutant E (mutations 2, 3, 4) (human) (UniProt P08581); assay: ELISA, MET ECD in solid phase, mAb 0-50 nM
[11] = target: human MET ECD mutant H (mutations 2, 4) (human) (UniProt P08581); assay: ELISA, MET ECD in solid phase, mAb 0-50 nM
[12] = target: human MET ECD mutant A (mutations 1, 2, 3) (human) (UniProt P08581); assay: ELISA, MET ECD in solid phase, mAb 0-50 nM
[13] = target: T1, native mouse MET on living cells; assay: cell-based or functional assay; remark: listed apart in the source
[14] = target: T2, native human MET on living cells; assay: cell-based or functional assay; remark: listed apart in the source
[15] = target: T5, mouse MET-Fc (R&D Systems) (mouse, UniProt P16056 25-929, limits assumed); assay: competition ELISA, mMET-Fc in solid phase, competitor 0.3 nM biotinylated mHGF
T5 construct: bought chimeric protein; also called mMET; not shown: Fc part
Experimental: (§2) To investigate along this line, we tested the competition between mAbs and HGF by ELISA. Recombinant human and mouse HGF (R&D Systems) were biotinylated at the N-terminus using NHS-LC-biotin (Thermo Scientific). MET-Fc protein, either human or mouse (R&D Systems), was immobilized in solid phase and then exposed to 0.3 nM biotinylated HGF, either human or mouse, in the presence of increasing concentrations of antibodies (0-120 nM).
(§3) A MET-Fc chimeric protein (either human or mouse) was immobilized in solid phase and exposed to a fixed concentration of biotinylated HGF (either human or mouse), in the presence of increasing concentrations of antibodies. […] Antibody-HGF competition is expressed as IC₅₀ (the concentration that achieves 50% competition) and IMAX (the maximum % competition reached at saturation).

[16] = target: T6, human MET-Fc (R&D Systems) (human, UniProt P08581 25-932); assay: competition ELISA, hMET-Fc in solid phase, competitor 0.3 nM biotinylated hHGF
T6 construct: extracellular domain; bought chimeric protein; also called hMET; not shown: Fc portion of human IgG1
T6 sequence (P08581 25-932): as the sequence (P08581 25-932 limits assumed, form in doubt) above
Experimental: as §2, §3

[17] = target: T2, native human MET on living cells; assay: flow cytometry, A549 cells
Experimental: (§4) We also analysed whether chimeric anti-MET antibodies bound to native human and mouse MET in living cells. […] Antibody binding to cells was analysed by flow cytometry using phycoerythrin-conjugated anti-human IgG1 antibodies (eBioscience) and a CyAn ADP analyser (Beckman Coulter). As a positive control for human MET binding, we used a commercial mouse anti-human MET antibody (R&D Systems) and phycoerythrin-conjugated anti-mouse IgG1 antibodies (eBioscience).
(§5) As a positive control for mouse MET binding we used a commercial goat anti-mouse MET antibody (R&D Systems) and phycoerythrin-conjugated anti-goat IgG1 antibodies (eBioscience). […] Consistent with the data obtained in ELISA, maximal binding (EMAX) varied depending on antibody, but was similar in human and mouse cells.

[18] = target: T1, native mouse MET on living cells; assay: flow cytometry, MLP29 cells
Experimental: as §4, §5

T2 sequence (P08581 25-1390): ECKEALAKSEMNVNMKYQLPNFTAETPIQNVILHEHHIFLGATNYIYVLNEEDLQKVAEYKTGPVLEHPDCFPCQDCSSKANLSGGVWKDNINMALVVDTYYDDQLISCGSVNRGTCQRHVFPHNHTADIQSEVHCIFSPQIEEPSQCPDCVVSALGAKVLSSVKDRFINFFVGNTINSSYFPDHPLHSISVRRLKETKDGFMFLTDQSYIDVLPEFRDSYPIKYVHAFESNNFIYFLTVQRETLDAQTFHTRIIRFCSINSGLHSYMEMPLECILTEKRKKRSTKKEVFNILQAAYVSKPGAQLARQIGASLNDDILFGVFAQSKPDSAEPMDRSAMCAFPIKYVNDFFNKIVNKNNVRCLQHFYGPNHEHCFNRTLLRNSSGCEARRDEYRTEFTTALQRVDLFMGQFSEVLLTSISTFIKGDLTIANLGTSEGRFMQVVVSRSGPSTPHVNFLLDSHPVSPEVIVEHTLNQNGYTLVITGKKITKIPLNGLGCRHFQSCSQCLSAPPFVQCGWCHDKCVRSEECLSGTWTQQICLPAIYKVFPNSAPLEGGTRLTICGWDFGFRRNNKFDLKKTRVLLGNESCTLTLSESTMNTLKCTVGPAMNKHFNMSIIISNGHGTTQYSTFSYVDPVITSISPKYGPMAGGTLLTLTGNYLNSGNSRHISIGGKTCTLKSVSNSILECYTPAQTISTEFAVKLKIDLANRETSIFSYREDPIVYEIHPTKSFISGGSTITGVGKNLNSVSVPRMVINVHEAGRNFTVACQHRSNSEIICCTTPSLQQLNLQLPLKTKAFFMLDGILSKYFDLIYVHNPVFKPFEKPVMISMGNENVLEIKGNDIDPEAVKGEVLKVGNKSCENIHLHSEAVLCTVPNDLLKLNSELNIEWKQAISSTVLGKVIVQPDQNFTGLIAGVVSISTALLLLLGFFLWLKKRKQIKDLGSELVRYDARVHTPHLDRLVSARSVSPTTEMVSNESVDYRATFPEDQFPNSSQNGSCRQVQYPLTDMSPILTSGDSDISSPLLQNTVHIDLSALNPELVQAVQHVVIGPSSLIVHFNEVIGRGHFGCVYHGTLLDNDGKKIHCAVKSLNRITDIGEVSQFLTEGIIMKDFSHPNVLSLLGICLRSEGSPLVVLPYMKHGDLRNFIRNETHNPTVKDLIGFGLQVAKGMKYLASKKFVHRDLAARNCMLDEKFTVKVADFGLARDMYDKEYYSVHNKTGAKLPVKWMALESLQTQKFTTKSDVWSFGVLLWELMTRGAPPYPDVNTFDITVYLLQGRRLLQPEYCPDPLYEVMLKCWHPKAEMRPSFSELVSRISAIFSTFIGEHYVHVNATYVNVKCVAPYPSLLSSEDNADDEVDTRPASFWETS

phospho-MET ELISA EC50, MLP29 cells [1]: 0.21 nM
phospho-MET ELISA EMAX (% HGF activity), MLP29 cells [1]: 115%
phospho-MET ELISA EC50, A549 cells [2]: 0.32 nM
phospho-MET ELISA EMAX (% HGF activity), A549 cells [2]: 102%
% binding (EMAX) compared to WT MET (human MET ECD [3]): 100 % WT MET ECD
EC50 (human MET ECD [4]): 0.026 nM
EMAX (OD450) (human MET ECD [4]): 2.08 AU
EC50 (mouse MET ECD): 0.049 nM
EMAX (OD450) (mouse MET ECD): 2.01 AU
scatter score 0-4, MLP29, 0.001 nM [5]: 0 score
scatter score 0-4, MLP29, 0.004 nM [5]: 1 score
scatter score 0-4, MLP29, 0.012 nM [5]: 2 score
scatter score 0-4, MLP29, 0.037 nM [5]: 3 score
scatter score 0-4, MLP29, 0.111 nM [5]: 4 score
scatter score 0-4, MLP29, 0.333 nM [5]: 4 score
scatter score 0-4, MLP29, 1.000 nM [5]: 4 score
scatter score 0-4, MLP29, 3.000 nM [5]: 4 score
scatter score 0-4, MLP29, 9.000 nM [5]: 4 score
scatter score 0-4, HPAF-II, 0.001 nM [6]: 0 score
scatter score 0-4, HPAF-II, 0.004 nM [6]: 1 score
scatter score 0-4, HPAF-II, 0.012 nM [6]: 2 score
scatter score 0-4, HPAF-II, 0.037 nM [6]: 3 score
scatter score 0-4, HPAF-II, 0.111 nM [6]: 4 score
scatter score 0-4, HPAF-II, 0.333 nM [6]: 4 score
scatter score 0-4, HPAF-II, 1.000 nM [6]: 4 score
scatter score 0-4, HPAF-II, 3.000 nM [6]: 4 score
scatter score 0-4, HPAF-II, 9.000 nM [6]: 4 score
branches per spheroid, MLP29 cells, 0.5 nM [7]: 32.7 branches
branches per spheroid, MLP29 cells, 2.5 nM [7]: 39 branches
branches per spheroid, MLP29 cells, 12.5 nM [7]: 41.3 branches
branches per spheroid, LOC cells, 0.5 nM [8]: 29 branches
branches per spheroid, LOC cells, 2.5 nM [8]: 29 branches
branches per spheroid, LOC cells, 12.5 nM [8]: 32.7 branches
% binding (EMAX) compared to WT MET [9]: 128 % WT MET ECD
% binding (EMAX) compared to WT MET [10]: 43.6 % WT MET ECD
% binding (EMAX) compared to WT MET [11]: 38.6 % WT MET ECD
% binding (EMAX) compared to WT MET [12]: 103 % WT MET ECD
IC50 [15]: 0.34 nM
IMAX [15]: 90.5%
IC50 [16]: 0.29 nM
IMAX [16]: 98.3%
EC50 [17]: 0.259 nM
EMAX [17]: 113 % relative to control
EC50 [18]: 0.383 nM
EMAX [18]: 121 % relative to control
B1: 71D6 chimeric llama-human IgG1 mAb (antibody, V domains shown)
VH: ELQLVESGGGLVQPGGSLRLSCAASGFTFSSYGMSWVRQAPGKGLEWVSAINSYGGSTSYADSVKGRFTISRDNAKNTLYLQMNSLKPEDTAVYYCAKEVRADLSRYNDYESYDYWGQGTQVTVSS
VL: QPVLNQPSALSVTLGQTAKITCQGGSLGARYAHWYQQKPGQAPVLVIYDDDSRPSGIPERFSGSSSGGTATLTISGAQAEDEGDYYCQSADSSGSVFGGGTHLTVL
notes: llama VH on human IgG1 CH1-CH2-CH3, llama VL on human lambda CL
protection from staurosporine, viability EC50, MLP29 cells [13]: 0.95 nM
protection from staurosporine, viability EMAX, MLP29 cells [13]: 68.3%
protection from staurosporine, viability EC50, MCF10A cells [14]: 1.48 nM
protection from staurosporine, viability EMAX, MCF10A cells [14]: 66.8%

phospho-MET ELISA EC50, MLP29 cells [1]: 0.33 nM
phospho-MET ELISA EMAX (% HGF activity), MLP29 cells [1]: 98.8%
phospho-MET ELISA EC50, A549 cells [2]: 0.35 nM
phospho-MET ELISA EMAX (% HGF activity), A549 cells [2]: 86.2%
% binding (EMAX) compared to WT MET (human MET ECD [3]): 100 % WT MET ECD
EC50 (human MET ECD [4]): 0.203 nM
EMAX (OD450) (human MET ECD [4]): 2.46 AU
EC50 (mouse MET ECD): 0.293 nM
EMAX (OD450) (mouse MET ECD): 2.24 AU
scatter score 0-4, MLP29, 0.001 nM [5]: 0 score
scatter score 0-4, MLP29, 0.004 nM [5]: 0 score
scatter score 0-4, MLP29, 0.012 nM [5]: 0 score
scatter score 0-4, MLP29, 0.037 nM [5]: 0 score
scatter score 0-4, MLP29, 0.111 nM [5]: 1 score
scatter score 0-4, MLP29, 0.333 nM [5]: 2 score
scatter score 0-4, MLP29, 1.000 nM [5]: 3 score
scatter score 0-4, MLP29, 3.000 nM [5]: 4 score
scatter score 0-4, MLP29, 9.000 nM [5]: 4 score
scatter score 0-4, HPAF-II, 0.001 nM [6]: 0 score
scatter score 0-4, HPAF-II, 0.004 nM [6]: 0 score
scatter score 0-4, HPAF-II, 0.012 nM [6]: 0 score
scatter score 0-4, HPAF-II, 0.037 nM [6]: 0 score
scatter score 0-4, HPAF-II, 0.111 nM [6]: 1 score
scatter score 0-4, HPAF-II, 0.333 nM [6]: 2 score
scatter score 0-4, HPAF-II, 1.000 nM [6]: 3 score
scatter score 0-4, HPAF-II, 3.000 nM [6]: 4 score
scatter score 0-4, HPAF-II, 9.000 nM [6]: 4 score
branches per spheroid, MLP29 cells, 0.5 nM [7]: 11.7 branches
branches per spheroid, MLP29 cells, 2.5 nM [7]: 15.7 branches
branches per spheroid, MLP29 cells, 12.5 nM [7]: 24.7 branches
branches per spheroid, LOC cells, 0.5 nM [8]: 8.7 branches
branches per spheroid, LOC cells, 2.5 nM [8]: 12.7 branches
branches per spheroid, LOC cells, 12.5 nM [8]: 15.7 branches
% binding (EMAX) compared to WT MET [9]: 102 % WT MET ECD
% binding (EMAX) compared to WT MET [10]: 59.6 % WT MET ECD
% binding (EMAX) compared to WT MET [11]: 61.6 % WT MET ECD
% binding (EMAX) compared to WT MET [12]: 99.8 % WT MET ECD
IC50 [15]: 1.56 nM
IMAX [15]: 89.2%
IC50 [16]: 1.42 nM
IMAX [16]: 93.6%
EC50 [17]: 0.572 nM
EMAX [17]: 106 % relative to control
EC50 [18]: 0.585 nM
EMAX [18]: 115 % relative to control
B2: 71C3 chimeric llama-human IgG1 mAb (antibody, V domains shown)
VH: B1 VH with E1Q, Y32H, G33A, Y54G, V100L, A102F, S105A, N108T, S112A, Y113W
VL: SYELTQPSALSVTLGQTAKITCQGGSLGSSYAHWYQQKPGQAPVLVIYDDDSRPSGIPERFSGSSSGGTATLTISGAQAEDEGDYYCQSADSSGNAAVFGGGTHLTVL
notes: as for B1
protection from staurosporine, viability EC50, MLP29 cells [13]: 31 nM
protection from staurosporine, viability EMAX, MLP29 cells [13]: 51.3%
protection from staurosporine, viability EC50, MCF10A cells [14]: 31.9 nM
protection from staurosporine, viability EMAX, MCF10A cells [14]: 50.2%
